Substitutions are numbered along the chain they refer to. Names and notes keep the numbering of the source.
T1: recombinant His-tagged human FcγRIIb (Sino Biological, Cat #10259-H27H-B) (human, UniProt P31994 43-217)
T1 construct: Bought protein; not shown: His tag
T1 sequence (looked up): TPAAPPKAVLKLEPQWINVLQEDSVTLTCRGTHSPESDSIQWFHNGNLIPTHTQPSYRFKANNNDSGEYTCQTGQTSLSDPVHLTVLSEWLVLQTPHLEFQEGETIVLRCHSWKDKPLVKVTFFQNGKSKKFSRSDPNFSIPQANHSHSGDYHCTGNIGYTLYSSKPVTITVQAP

T2: human CD27 expressed on cells (T cells, transfected HEK293F cells, Daudi cells, NFκB-luc2/CD27 Jurkat … (human, UniProt P26842 20-240))
T2 construct: also called TNFRSF7
T2 sequence: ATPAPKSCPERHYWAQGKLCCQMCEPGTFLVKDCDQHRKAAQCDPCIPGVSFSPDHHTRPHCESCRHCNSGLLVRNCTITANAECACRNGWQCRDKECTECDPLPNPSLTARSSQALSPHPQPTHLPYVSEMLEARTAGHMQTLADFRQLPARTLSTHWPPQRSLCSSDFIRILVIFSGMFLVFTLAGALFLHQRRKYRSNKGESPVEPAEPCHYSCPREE

T3: recombinant His-tagged human FcγRIIa 167-Arg (Sino Biological, Cat #10374-H27H1-B) (human, UniProt P12318 34-218)
T3 construct: Bought protein; also called FcγRIIa-R; FcγRIIa (167-Arg [R]); not shown: His tag
T3 sequence (looked up): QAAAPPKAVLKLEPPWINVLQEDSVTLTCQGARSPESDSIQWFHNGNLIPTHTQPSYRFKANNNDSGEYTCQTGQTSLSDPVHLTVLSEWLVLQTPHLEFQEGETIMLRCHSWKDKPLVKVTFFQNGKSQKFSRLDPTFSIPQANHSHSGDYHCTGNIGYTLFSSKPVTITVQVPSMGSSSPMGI

T4: recombinant His-tagged human FcγRIIa 167-His (Sino Biological, Cat #10374-H27H) (human, UniProt P12318 34-218)
T4 construct: Bought protein; also called FcγRIIa-H; FcγRIIa (167-His [H]); not shown: His tag
T4 sequence (looked up): T3 sequence (looked up) with R134H

T5: cynomolgus monkey CD27 expressed on cells (cynomolgus monkey T cells, transfected HEK293F cells) (cynomolgus monkey, UniProt P26842 20-260 (human entry))
T5 construct: also called cyno CD27
T5 chain: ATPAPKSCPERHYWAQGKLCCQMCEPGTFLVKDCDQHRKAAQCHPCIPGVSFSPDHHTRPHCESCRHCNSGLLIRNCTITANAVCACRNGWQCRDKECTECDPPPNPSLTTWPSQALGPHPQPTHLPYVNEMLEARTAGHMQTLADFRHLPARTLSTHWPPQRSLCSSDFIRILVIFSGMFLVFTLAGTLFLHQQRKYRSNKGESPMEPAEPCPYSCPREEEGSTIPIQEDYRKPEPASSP

B1: IgG1-CD27-A-P329R-E345R (antibody)
heavy: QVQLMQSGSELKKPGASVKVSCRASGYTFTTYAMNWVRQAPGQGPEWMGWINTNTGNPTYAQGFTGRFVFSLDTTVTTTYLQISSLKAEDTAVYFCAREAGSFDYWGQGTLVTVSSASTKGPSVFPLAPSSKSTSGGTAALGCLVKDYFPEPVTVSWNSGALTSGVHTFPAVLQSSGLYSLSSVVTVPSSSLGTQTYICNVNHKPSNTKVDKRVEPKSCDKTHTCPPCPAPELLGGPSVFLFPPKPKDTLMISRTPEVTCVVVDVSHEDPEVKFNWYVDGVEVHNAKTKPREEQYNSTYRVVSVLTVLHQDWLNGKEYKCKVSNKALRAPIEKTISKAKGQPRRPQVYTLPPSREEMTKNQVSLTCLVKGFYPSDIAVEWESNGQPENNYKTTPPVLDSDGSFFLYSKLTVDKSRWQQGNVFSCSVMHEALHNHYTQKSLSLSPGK
light: QSALTQPASVSGSPGQSITISCTGTSSDVYYYNYVSWYQQHPGRAPKLVIYDVSNRPSGVSNRFSGSKSGNTASLTISGLRAEDEADYYCSSYTVNRVWVFGGGTKLTVLGQPKAAPSVTLFPPSSEELQANKATLVCLISDFYPGAVTVAWKADSSPVKAGVETTTPSKQSNNKYAASSYLSLTPEQWKSHRSYSCQVTHEGSTVEKTVAPTECS
notes: also called IgG1-CD27-A-E345R-P329R
B2: IgG1-b12-FEAR (antibody, V domains shown)
VH: QVQLVQSGAEVKKPGASVKVSCQASGYRFSNFVIHWVRQAPGQRFEWMGWINPYNGNKEFSAKFQDRVTFTADTSANTAYMELRSLRSADTAVYYCARVGPYSWDDSPQDNYYMDVWGKGTTVIVSS
VL: EIVLTQSPGTLSLSPGERATFSCRSSHSIRSRRVAWYQHKPGQAPRLVIHGVSNRASGISDRFSGSGSGTDFTLTITRVEPEDFALYYCQVYGASSYTFGQGTKLERK
notes: also called ctrl; anti-HIV-gp120 antibody IgG1-b12-FEAR

Assays:
[1] = molecular target: T6, human C1q (from normal human serum) (human, UniProt P02745 23-245; P02746 28-253; P02747 29-245); test: flow cytometry: human T cells opsonised with the antibody, 20% normal human serum as source of C1q, FITC-labelled rabbit anti-human C1q
T6 construct: 20% normal human serum was the source of C1q
T6 sequence (P02745 23-245 limits assumed, chain 1 of 3): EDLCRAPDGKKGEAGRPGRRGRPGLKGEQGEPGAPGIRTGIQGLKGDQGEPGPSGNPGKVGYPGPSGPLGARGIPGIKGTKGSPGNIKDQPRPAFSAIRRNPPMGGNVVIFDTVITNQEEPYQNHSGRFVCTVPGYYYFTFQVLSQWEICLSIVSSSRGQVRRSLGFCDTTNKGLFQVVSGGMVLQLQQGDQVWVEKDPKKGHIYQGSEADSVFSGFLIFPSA
T6 sequence (P02746 28-253 limits assumed, chain 2 of 3): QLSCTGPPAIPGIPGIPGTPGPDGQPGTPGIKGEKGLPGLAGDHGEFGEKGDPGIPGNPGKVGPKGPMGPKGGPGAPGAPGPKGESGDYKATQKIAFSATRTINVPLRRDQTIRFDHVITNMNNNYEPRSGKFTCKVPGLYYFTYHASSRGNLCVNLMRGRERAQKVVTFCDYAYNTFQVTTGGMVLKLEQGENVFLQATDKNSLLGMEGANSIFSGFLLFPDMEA
T6 sequence (P02747 29-245 limits assumed, chain 3 of 3): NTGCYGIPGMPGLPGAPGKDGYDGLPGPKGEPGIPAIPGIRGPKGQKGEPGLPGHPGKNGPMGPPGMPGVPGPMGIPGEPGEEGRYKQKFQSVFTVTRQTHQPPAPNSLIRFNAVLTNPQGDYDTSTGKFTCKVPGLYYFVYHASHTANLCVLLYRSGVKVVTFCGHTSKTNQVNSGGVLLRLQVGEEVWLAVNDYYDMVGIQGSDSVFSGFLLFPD

[2] = molecular target: T1, recombinant His-tagged human FcγRIIb …; test: SPR (Biacore): His-tagged FcγRIIb captured on an anti-His chip, antibody injected
[3] = molecular target: T2, human CD27 expressed on cells (T cells, …); test: flow cytometry on CD4+ T cells in human PBMC, FITC-conjugated goat anti-human IgG F(ab')2, median FITC
Method: (§1) Binding of IgG1-CD27-A-P329R-E345R to CD27 on human healthy donor T cells was characterized in more detail using flow cytometry. Anti-HIV gp120 antibody variant IgG1-b12-P329R-E345R was used as non-binding control antibody (ctrl). Human PBMCs were isolated from buffy coats obtained from human healthy donors. PBMCs (1×10⁵ cells/well) in FACS buffer were added to polystyrene 96-well round-bottom plates (Greiner bio-one, Cat #650101) and pelleted by centrifugation at 300×g for 3 min at 4° C. The cells were resuspended in 50 μL/well serial antibody dilutions in FACS buffer (range 0.0015 to 10 μg/mL in 3-fold dilution steps) and incubated for 30 min at 4° C. Cells were pelleted, washed twice with FACS buffer and incubated in 50 μL/well with FITC-conjugated secondary antibody (FITC AffiniPure F(ab′)₂ fragment goat anti-human IgG, F(ab′)₂ fragment specific, Jackson ImmunoResearch, Cat #109-096-097, diluted 1:100) for 30 min at 4° C. in the dark. […] The samples were measured by flow cytometry on an LSRFortessa (BD) flow cytometer and analyzed using FlowJo software. Binding curves were analyzed using non-linear regression (sigmoidal dose-response with variable slope) using GraphPad Prism 8 software.

[4] = molecular target: T7, recombinant His-tagged human FcγRIIIa 176-Phe (Sino Biological, Cat #10389-H27H-B) (human, UniProt P08637 17-208); test: SPR (Biacore): His-tagged FcγRIIIa-F captured on an anti-His chip, antibody injected
T7 construct: Bought protein; also called FcγRIIIa-F; FcγRIIIa (176-Phe [F]); not shown: His tag
T7 sequence (P08637 17-208 limits assumed): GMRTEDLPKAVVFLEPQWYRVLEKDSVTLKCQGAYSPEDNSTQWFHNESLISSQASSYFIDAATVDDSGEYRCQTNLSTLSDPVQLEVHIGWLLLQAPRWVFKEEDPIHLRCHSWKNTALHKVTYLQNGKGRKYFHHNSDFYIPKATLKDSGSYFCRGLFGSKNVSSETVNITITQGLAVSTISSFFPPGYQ

[5] = molecular target: T2, human CD27 expressed on cells (T cells, …); test: flow cytometry on CD8+ T cells in human PBMC, FITC-conjugated goat anti-human IgG F(ab')2, median FITC
Method: as §1

[6] = molecular target: T3, recombinant His-tagged human FcγRIIa …; test: SPR (Biacore): His-tagged FcγRIIa-R captured on an anti-His chip, antibody injected
[7] = molecular target: T4, recombinant His-tagged human FcγRIIa …; test: SPR (Biacore): His-tagged FcγRIIa-H captured on an anti-His chip, antibody injected
[8] = molecular target: T8, recombinant His-tagged human FcγRIIIa 176-Val (Sino Biological, Cat #10389-H27H1-B) (human, UniProt P08637 17-208); test: SPR (Biacore): His-tagged FcγRIIIa-V captured on an anti-His chip, antibody injected
T8 construct: Bought protein; also called FcγRIIIa-V; FcγRIIIa (176-Val [V]); not shown: His tag
T8 sequence (P08637 17-208 F176V limits assumed): as the sequence (P08637 17-208 limits assumed) above, with F160V counted along it

[9] = molecular target: T9, recombinant His-tagged human FcγRIa (Sino Biological, Cat #10256-H08S-B) (human, UniProt P12314 16-288); test: SPR (Biacore): His-tagged FcγRIa captured on an anti-His chip, antibody injected; resonance units against antibody concentration
T9 construct: Bought protein; not shown: His tag
T9 sequence (P12314 16-288 limits assumed, stated change not applied): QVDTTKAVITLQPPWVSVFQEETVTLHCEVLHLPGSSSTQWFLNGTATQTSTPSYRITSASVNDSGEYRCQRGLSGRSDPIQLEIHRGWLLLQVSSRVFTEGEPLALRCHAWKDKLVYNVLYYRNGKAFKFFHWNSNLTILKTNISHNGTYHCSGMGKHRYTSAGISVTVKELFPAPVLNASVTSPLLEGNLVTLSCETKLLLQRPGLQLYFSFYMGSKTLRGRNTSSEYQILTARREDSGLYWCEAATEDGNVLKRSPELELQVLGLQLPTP
Method: Binding of IgG1-CD27-A-P329R-E345R to human FcγR variants was analyzed using a Biacore surface plasmon resonance (SPR) system and compared to an anti-HIV gp120 antibody IgG1-b12 (ctrl). Biacore Series S Sensor Chips CM5 (Cytiva, Cat #29104988) were covalently coated with anti-His antibody using amine-coupling and His capture kits (Cytiva, Cat #BR100050 and Cat #29234602) according to the manufacturer's instructions. […] After three cycles of buffer, antibody samples were injected for 36 cycles to generate binding curves using antibody ranges of 0-3,000 nM for FcγRI and 0-10,000 nM for the other FcγRs. Each sample that was analyzed on an FcR-coated surface (Active Surface) was also analyzed on a parallel flow-cell without FcR (Reference Surface), which was used for background correction. Dissociation from the anti-His-coated surface was performed by regeneration of the surface using 10 mM Glycine-HCl pH 1.5 (Cytiva, Cat #BR100354). Sensograms were generated using Biacore Insight Evaluation software (Cytiva) and a four-parameter logistic (4PL) fit was applied to calculate relative binding of IgG1-CD27-A-P329R-E345R against the reference sample (ctrl).

[10] = molecular target: T5, cynomolgus monkey CD27 expressed on …; test: flow cytometry on T cells in cynomolgus monkey PBMC, PE-labelled goat anti-human IgG, median MFI PE
[11] = molecular target: T2, human CD27 expressed on cells (T cells, …); test: flow cytometry on T cells in human PBMC, PE-labelled goat anti-human IgG, median MFI PE

Binder | binding result [1] | binding result [2] | EC50 (read off the curve) [3] [µg/mL] | binding result [4] | EC50 (read off the curve) [5] [µg/mL] | binding result [6] | binding result [7] | binding result [8] | binding result [9] | binding result [10] | binding result [11]
B1 | no binding (tested: 15 µg/mL) | no binding (tested: 10,000 nM) | ~0.03 | no binding (tested: 10,000 nM) | ~0.03 | no binding (tested: 10,000 nM) | no binding (tested: 10,000 nM) | no binding (tested: 10,000 nM) | binds | – | –
B2 | – | – | – | – | – | – | – | – | – | no binding (tested: 10 µg/mL) | no binding (tested: 10 µg/mL)

From patent US20250325643A1 (Genmab, published 2025)
